Laboratory results reported in US7122363.

How the values were obtained:
[1] = molecular target: 59 kDa bovine lung CaM-PDE (expression product of p59KCAMPDE-2 cDNA) (bovine) (UniProt P14100); experiment: cell-based or functional assay
[2] = molecular target: 63 kDa bovine brain CaM-PDE (expression product of p12.3a cDNA) (bovine) (UniProt Q01061); experiment: cell-based or functional assay
Sequence of 63 kDa bovine brain CaM-PDE (expression product of p12.3a cDNA) (bovine) (Q01061 whole entry): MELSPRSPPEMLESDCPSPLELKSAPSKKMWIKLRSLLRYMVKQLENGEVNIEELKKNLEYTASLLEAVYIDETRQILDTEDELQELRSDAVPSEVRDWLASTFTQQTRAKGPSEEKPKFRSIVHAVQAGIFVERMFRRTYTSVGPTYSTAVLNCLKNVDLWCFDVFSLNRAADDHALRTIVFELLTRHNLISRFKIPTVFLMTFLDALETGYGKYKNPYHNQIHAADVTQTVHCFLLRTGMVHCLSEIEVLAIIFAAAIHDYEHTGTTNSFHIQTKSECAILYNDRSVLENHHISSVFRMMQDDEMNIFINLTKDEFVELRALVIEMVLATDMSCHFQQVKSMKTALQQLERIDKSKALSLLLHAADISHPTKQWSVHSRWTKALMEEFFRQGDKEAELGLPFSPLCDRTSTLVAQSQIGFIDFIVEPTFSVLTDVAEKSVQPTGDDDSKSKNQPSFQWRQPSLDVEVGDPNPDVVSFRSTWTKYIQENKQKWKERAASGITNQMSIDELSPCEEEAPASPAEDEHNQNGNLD

Sequence of 59 kDa bovine lung CaM-PDE (expression product of p59KCAMPDE-2 cDNA) (bovine) (P14100 other isoform, or with tags, fused parts or gaps limits assumed): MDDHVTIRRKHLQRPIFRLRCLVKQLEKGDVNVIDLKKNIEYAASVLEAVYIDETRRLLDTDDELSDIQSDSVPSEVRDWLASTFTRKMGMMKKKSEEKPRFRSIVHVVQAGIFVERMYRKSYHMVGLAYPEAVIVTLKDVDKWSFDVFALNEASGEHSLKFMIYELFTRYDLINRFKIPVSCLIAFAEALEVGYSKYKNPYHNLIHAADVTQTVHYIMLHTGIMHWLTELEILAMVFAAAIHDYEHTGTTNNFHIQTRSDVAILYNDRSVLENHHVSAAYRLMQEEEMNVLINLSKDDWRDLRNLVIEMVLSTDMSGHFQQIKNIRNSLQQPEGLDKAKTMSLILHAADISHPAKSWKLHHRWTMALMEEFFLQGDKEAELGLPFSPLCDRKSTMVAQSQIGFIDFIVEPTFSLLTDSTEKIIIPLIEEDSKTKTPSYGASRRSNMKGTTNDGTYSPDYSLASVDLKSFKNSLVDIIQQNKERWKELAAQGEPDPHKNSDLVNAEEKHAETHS

## calmodulin
[1]
  cAMP hydrolytic activity (extracts of transfected COS-7 cells, 2 uM cAMP): 4 to 5 fold
[2]
  CaM-stimulated cAMP phosphodiesterase activity (homogenates of transfected COS-7 cells): 15 fold
  CaM-stimulated cGMP phosphodiesterase activity (homogenates of transfected COS-7 cells): 12 fold
